We go through three molecules from PMC2691817 (Nucleic Acids Research, 2009).

The data set “SEC” concerns the molecule itself. Nature of the data set: SEC. A general note: SEC sorts molecules by how far they enter the pores of the column.
The target in the next data set is T1, SeqAΔ(41-59)-A25R (Escherichia coli, UniProt P0AFY8 1-181, A25R;del41-59).
T1 sequence: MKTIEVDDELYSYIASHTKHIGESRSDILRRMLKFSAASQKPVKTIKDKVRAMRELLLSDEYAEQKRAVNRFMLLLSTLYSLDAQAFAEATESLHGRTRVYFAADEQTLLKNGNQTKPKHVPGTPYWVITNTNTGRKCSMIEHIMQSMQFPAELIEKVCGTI
Nature of the data set: EMSA.

B1: SeqAΔ(41–59)-A25R (natural protein, E. coli, UniProt P0AFY8 1-181, looked up)
chain: MKTIEVDDELYSYIASHTKHIGESRSDILRRMLKFSAASQKPVKTIKDKVRAMRELLLSDEYAEQKRAVNRFMLLLSTLYSLDAQAFAEATESLHGRTRVYFAADEQTLLKNGNQTKPKHVPGTPYWVITNTNTGRKCSMIEHIMQSMQFPAELIEKVCGTI
As usually defined, the stoichiometry N is the number of molecules, sites or subunits per partner or assembly. Consider B1, for which the “stoichiometry N” value in “SEC” was determined as 2.

B2: hemimethylated tandem GATC duplex (crystallization oligonucleotide) (dsDNA)
DNA 1: GAGTCGATCGGCGGGATCCTTA
DNA 2: TCTAAGGATCCCGCCGATCGAC
modifications: N6-methyladenine at positions 7 and 16 of strand 1; strand 2 unmethylated
In general, Kd refers to the concentration at which binding is half-saturated. Consider B2, for which the Kd with SeqAΔ(41-59)-A25R is ~90 nM.

B3: SeqA-A25R (natural protein, E. coli, UniProt P0AFY8 1-181, looked up)
chain: MKTIEVDDELYSYIASHTKHIGESRSDILRRMLKFSAASQPAAPVTKEVRVASPAIVEAKPVKTIKDKVRAMRELLLSDEYAEQKRAVNRFMLLLSTLYSLDAQAFAEATESLHGRTRVYFAADEQTLLKNGNQTKPKHVPGTPYWVITNTNTGRKCSMIEHIMQSMQFPAELIEKVCGTI
Turning to B3, in the data set “SEC”, the binding result is listed as “binds”.
